Measurements from patent US7521477B2, “Vitamin C derivatives with peptide, preparation method thereof and composition comprising the same” (Peptron Co., Ltd., priority 2003, dated 2009).
Peptide text beside a SMILES is read from it. * marks the point of attachment. X1 = O=C(CCC(=O)*)OC[C@H](O)[C@H]1OC(=O)C(O)=C1O

Assays:
[1] = test system: human normal fibroblasts, B16 melanocytes and HaCaT cells; assay: Cytotoxicity, MTT assay; assay type: cell-based; conditions: concentration of 5 mM
rabbits = assay: Skin irritation test (patch test); assay type: in vivo; conditions: 0.5 ml of 1% in 0.01M PBS, 24 hrs patch, read 24 hrs and 72 hrs
Protocol: 0.5 ml of 1% compound II-4 in 0.01M PBS was applied to each hairless area (2.5 cm×2.5 cm) of the back of rabbits for 24 hrs once. Each of the treated sites was covered with a single sheet of gauge (10 cm×10 cm) to prevent loss of the test compound by contact and then an impermeable and unreactive solid film to prevent evaporation of the test compound. Then, the treated site was bound with an elastic bandage while not disturbing behavior of the rabbits, and the bandage was then held in place by a paper tape. 24 hrs and 72 hrs after application of the test compound, skin irritation was investigated.

eyes of rabbits = assay: Ocular irritation test; assay type: in vivo, New Zealand White Rabbit; conditions: 0.1 ml of 1% in 0.01M PBS
Protocol: The compound II-4 was determined whether inducing ocular irritation or evaluated for the degree of ocular irritation. The compound II-4 was applied to the eyes of rabbits (New Zealand White Rabbit, NZW).
0.1 ml of 1% compound II-4 in 0.01M PBS was applied to the eyes of the rabbits. That is, the test compound was applied to one eye (right) of each of nine rabbits in an amount of 0.1 ml/head according to the standard criteria for toxicity test of pharmaceutical and medicinal substances (a publication by Korean Food & Drug Administration, Vol. 1999-61, Dec. 22, 1999). After application of the test compound, the treated eyes of the rabbits were maintained at a state of being closed for about one second to prevent loss of the applied test compound. Then, the degree of damage in the cornea, the iris and the conjunctiva was investigated.

male Hartley guinea pigs [2] = assay: Phototoxicity test; conditions: guinea pig, in vivo
Protocol: Each of the test samples was applied to the skin of guinea pigs, and the guinea pigs were exposed to ultraviolet A (UVA) radiation. Then, potency to induce phototoxicity was evaluated. Induction of phototoxicity, which is an abnormal response of the skin to a photo-stimulus such as ultraviolet or visible light, occurs non-immunologically by a chemical. Unlike the allergic response, the degree of phototoxicity can be expected by sufficient intensity of radiation and drugs.
CP and 8-MOP were prepared at a final concentration of 10% in DMSO and then diluted to 1%. Each of guinea pigs was fixed on a fixing plate, and the skin of the guinea pig was covered with 50 μl of each of the test samples. Then, the right area of the skin was not exposed to UV light, and the left area of the skin was exposed to UVA light (320 to 380 nm) of 15 J/cm^2, which was irradiated in a distance of about 10 cm for about 2 hrs. 24 hrs, 48 hr and 72 hrs after UVA irradiation, photosensitization in the treatment group was evaluated in comparison with that in the positive control groups.

[3] = Toxicity test upon single oral administration; assay type: in vivo; conditions: both sexes, mouse, in vivo, 2000 mg/kg; single oral administration, male and female mice; read-out: Lethal dose
Protocol: (§1) The compound II-4 was evaluated for safety upon single oral administration. The compound II-4 was orally administered to five male and five female mice (SamtakoBioKorea Co. Ltd.) in a single dose of 2,000 mg/10 ml/kg. As a control, five male and five female mice were orally administered once with 0.1 M PBS of 10 ml/kg. During 14 days after administration, death, general pathogenic symptoms and change in body weight were not observed.

mice = assay: Toxicity test upon single oral administration; assay type: in vivo; conditions: single oral dose of 2,000 mg/10 ml/kg, 14 days, male and female mice
Protocol: as §1

male Hartley guinea pigs [4] = assay: Photosensitization test (Adjuvant & Strip method); assay type: in vivo; conditions: guinea pig, in vivo
Protocol: A photosensitization test for the compound II-4 was carried out according to an Adjuvant & Strip method using male Hartley guinea pigs. After four sites to be sensitized were selected at the cervical and dorsal skin of the guinea pigs, an emulsion of WFI and FCA were intradermally injected to each of the selected sites. The sensitized sites were stripped only in a degree of inducing weak erythema, and covered with 0.01 PBS (excipient group), the compound II-4 (test group) and CP (chlorpromazine; positive control group) in a non-occlusive manner. After two hours, long wave-length UV light of about 10 J/cm^2 was irradiated to the test substance-applied sites. 24 hrs, 48 hrs and 72 hrs after UV irradiation, signs of photosensitization were investigated.

male Hartley guinea pigs [5] = conditions: guinea pig, in vivo
Protocol: Two weeks after secondary sensitization, topical challenge was carried out, as follows. […] Skin reading was made after removal of the patches.

C[C@@H](O)[C@H](NC(=O)[C@H](CCCCN)NC(=O)CCC(=O)OC[C@H](O)[C@H]1OC(=O)C(O)=C1O)C(=O)N[C@H](C(=O)N[C@@H](CCCCN)C(=O)N[C@@H](CO)C(=O)O)[C@@H](C)O [II-4, 6-(succinyl-lysyl-threonyl-threonyl-lysyl-serine(SEQ ID NO:1))ascorbic acid] (X1-KTTKS-OH)
Cytotoxicity [1]: did not showed cytotoxicity
Skin irritation (rabbits): very safe upon application to the skin
Index of Acute Ocular Irritation (I.A.O.I) (eyes of rabbits): zero
Conjunctiva redness and chemosis (eyes of rabbits; day 1 to day 7): no sign of conjunctiva redness and chemosis was observed
Evaluation (male Hartley guinea pigs [2]): Practically non-irritating
Mean score (male Hartley guinea pigs [2]): 0
Phototoxicity (conclusion) (male Hartley guinea pigs [2]): rarely have phototoxicity
Total score/Site No (male Hartley guinea pigs [2]): 0 + 0/10
Total score/Site No. (male Hartley guinea pigs [2]): 0 + 0/10
LD50 at 336 h [3]: > 2000 mg/kg
Death, general pathogenic symptoms and change in body weight (mice): not observed
Mean score (male Hartley guinea pigs [4]): (0 + 0)/5
Photosensitization index (male Hartley guinea pigs [4]): 0
Photosensitizer (conclusion) (male Hartley guinea pigs [4]): not a photosensitizer
Stimulation index (male Hartley guinea pigs [4]): 0
Sensitization class (male Hartley guinea pigs [5]): I
Sensitization rate (%) (male Hartley guinea pigs [5]): 0%
Sensitization score (total hrs) (male Hartley guinea pigs [5]): 0
Skin reaction in induced regions (male Hartley guinea pigs [5]): no skin reaction was observed
sensitization class (male Hartley guinea pigs [5]): I
skin irritation rate (male Hartley guinea pigs [5]): 0%
